# Legend:
# [1] = target: FGFR1 kinase domain and tail (Homo sapiens) (UniProt P11362); settings: cited from earlier work
# [2] = target: GyrB.FGFR1KD.TC, activated (incubated with ATP, autophosphorylated) (UniProt P11362); experiment: FRET or BRET; TR-FRET, lifetime of donor mTFP in a quartz cuvette; GyrB.FGFR1KD.TC (1 uM) tagged with FlAsH-EDT2 and mTFP.nSH2 (1 uM); 40 mM Tris-HCl pH 8.0, 20 mM MgCl2, 20 mM NaCl, 100 uM TCEP, 100 uM Na3VO4; with 50 uM ATP, ambient conditions, 30 min
Substance,Kd [1],decrease in donor lifetime [2]
PLCγ1 nSH2 (from UniProt P19174),5 nM,
mTurquoise.nSH2 fusion protein (mTFP.nSH2) (domain or fragment),,500 ps

# — publication PMC4739061
